Measured values as given in article doi:10.1101/2022.08.09.502851, “Dystroglycan N-terminal domain enables LARGE1 to extend matriglycan on α-dystroglycan and prevents muscular dystrophy” (bioRxiv, 2022).
Numbering of substitutions follows the chain as printed. Names and notes keep the numbering of the source. Values belong to the binder of their own block, whether it stands above or below them.

Target: T1, laminin-111 (mouse Engelbreth-Holm-Swarm (EHS) laminin) (mouse, UniProt P19137 25-3083; P02469 22-1786; P02468 34-1607)
T1 construct: laminin subunit alpha-1 of laminin-111, mouse EHS laminin; laminin subunit beta-1 of laminin-111, mouse EHS laminin; laminin subunit gamma-1 of laminin-111, mouse EHS laminin; source: bought: ThermoFisher, 23017015 (mouse Engelbreth-Holm-Swarm laminin); copies: + +
Assay: ELISA; solid-phase assay: WGA eluates of skeletal muscle diluted 1:50 in TBS coated on polystyrene microplates overnight at 4 °C; Laminin-111 in laminin-binding buffer; bound laminin detected with L9393 and HRP anti-rabbit IgG, absorbance at 490 nm; three replicates for each group
Conditions: one partner purified

Kd: 0.966 ± 0.069 nM
B1: α-dystroglycan (α-DG), wild type, with full-length matriglycan, from control (WT littermate or C57BL/6J) mouse skeletal muscle (receptor, mouse (endogenous in skeletal muscle), UniProt Q62165 28-651, looked up)
chain: HWPSEPSEAVRDWKNQLEASMHSVLSDFQEAVPTVVGIPDGTAVVGRSFRVSIPTDLIASSGEIIKVSAAGKEALPSWLHWDPHSHILEGLPLDTDKGVHYISVSAARLGANGSHVPQTSSVFSIEVYPEDHNEPQSVRAASSDPGEVVPSACAADEPVTVLTVILDADLTKMTPKQRIDLLNRMQSFSEVELHNMKLVPVVNNRLFDMSAFMAGPGNAKKVVENGALLSWKLGCSLNQNSVPDIRGVETPAREGAMSAQLGYPVVGWHIANKKPTLPKRLRRQIHATPTPVTAIGPPTTAIQEPPSRIVPTPTSPAIAPPTETMAPPVRDPVPGKPTVTIRTRGAIIQTPTLGPIQPTRVSEAGTTVPGQIRPTLTIPGYVEPTAVITPPTTTTKKPRVSTPKPATPSTDSSTTTTRRPTKKPRTPRPVPRVTTKAPITRLETASPPTRIRTTTSGVPRGGEPNQRPELKNHIDRVDAWVGTYFEVKIPSDTFYDNEDTTTDKLKLTLKLREQQLVGEKSWVQFNSNSQLMYGLPDSSHVGKHEYFMHATDKGGLSAVDAFEIHVHKRPQGDKAPARFKARLAGDPAPVVNDIHKKIALVKKLAFAFGDRNCSSITLQNITRG
modifications: matriglycan [-GlcA-β1,3-Xyl-α1,3-]n, full length (α-DG of ~150-250 kDa); extensive O-glycosylation
notes: α-dystroglycan, the α-subunit cut from the DG pre-proprotein (Dag1), mouse; also called α-DG (WT)

Kd: 1.9 ± 0.199 nM
B2: α-dystroglycan with the knock-in mutation T190M, from Dag1 T190M mouse skeletal muscle (receptor, UniProt Q62165 28-651, looked up)
chain: B1 chain with T163M
modifications: matriglycan shorter than wild type (α-DG laminin-binding band at ~100-150 kDa)
notes: α-dystroglycan, the α-subunit cut from the DG pre-proprotein (Dag1), mouse, knock-in T190M (Hara et al., 2011); also called α-DGN mutant (T190M)
